# Measurements reported in article PMC12594171, “DKK3-LRP1 complex and a chemical inhibitor regulate Aβ clearance in models of Alzheimer’s disease” (Science Advances, 2025).
# T1: DKK1-AP (UniProt O94907 32-266)
# T1 construct: DKK1 cDNA cloned into the pAPtag-5 vector (GenHunter, QV5); also called DKK1 tagged with alkaline phosphatase (AP) and 6 × His; source: HEK293, transfected, conditioned medium; purified with Ni-NTA Agarose beads; not shown: alkaline phosphatase (AP), C-terminal, kept
# T1 sequence (looked up): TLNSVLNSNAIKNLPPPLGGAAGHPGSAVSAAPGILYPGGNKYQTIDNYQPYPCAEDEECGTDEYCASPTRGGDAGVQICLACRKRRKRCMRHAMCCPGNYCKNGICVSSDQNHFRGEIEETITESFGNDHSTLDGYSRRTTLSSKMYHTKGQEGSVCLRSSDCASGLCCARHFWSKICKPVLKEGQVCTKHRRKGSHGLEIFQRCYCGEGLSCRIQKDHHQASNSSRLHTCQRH
# B1: mLRPIV-6 × His, prokaryotically expressed (domain or fragment)
# chain: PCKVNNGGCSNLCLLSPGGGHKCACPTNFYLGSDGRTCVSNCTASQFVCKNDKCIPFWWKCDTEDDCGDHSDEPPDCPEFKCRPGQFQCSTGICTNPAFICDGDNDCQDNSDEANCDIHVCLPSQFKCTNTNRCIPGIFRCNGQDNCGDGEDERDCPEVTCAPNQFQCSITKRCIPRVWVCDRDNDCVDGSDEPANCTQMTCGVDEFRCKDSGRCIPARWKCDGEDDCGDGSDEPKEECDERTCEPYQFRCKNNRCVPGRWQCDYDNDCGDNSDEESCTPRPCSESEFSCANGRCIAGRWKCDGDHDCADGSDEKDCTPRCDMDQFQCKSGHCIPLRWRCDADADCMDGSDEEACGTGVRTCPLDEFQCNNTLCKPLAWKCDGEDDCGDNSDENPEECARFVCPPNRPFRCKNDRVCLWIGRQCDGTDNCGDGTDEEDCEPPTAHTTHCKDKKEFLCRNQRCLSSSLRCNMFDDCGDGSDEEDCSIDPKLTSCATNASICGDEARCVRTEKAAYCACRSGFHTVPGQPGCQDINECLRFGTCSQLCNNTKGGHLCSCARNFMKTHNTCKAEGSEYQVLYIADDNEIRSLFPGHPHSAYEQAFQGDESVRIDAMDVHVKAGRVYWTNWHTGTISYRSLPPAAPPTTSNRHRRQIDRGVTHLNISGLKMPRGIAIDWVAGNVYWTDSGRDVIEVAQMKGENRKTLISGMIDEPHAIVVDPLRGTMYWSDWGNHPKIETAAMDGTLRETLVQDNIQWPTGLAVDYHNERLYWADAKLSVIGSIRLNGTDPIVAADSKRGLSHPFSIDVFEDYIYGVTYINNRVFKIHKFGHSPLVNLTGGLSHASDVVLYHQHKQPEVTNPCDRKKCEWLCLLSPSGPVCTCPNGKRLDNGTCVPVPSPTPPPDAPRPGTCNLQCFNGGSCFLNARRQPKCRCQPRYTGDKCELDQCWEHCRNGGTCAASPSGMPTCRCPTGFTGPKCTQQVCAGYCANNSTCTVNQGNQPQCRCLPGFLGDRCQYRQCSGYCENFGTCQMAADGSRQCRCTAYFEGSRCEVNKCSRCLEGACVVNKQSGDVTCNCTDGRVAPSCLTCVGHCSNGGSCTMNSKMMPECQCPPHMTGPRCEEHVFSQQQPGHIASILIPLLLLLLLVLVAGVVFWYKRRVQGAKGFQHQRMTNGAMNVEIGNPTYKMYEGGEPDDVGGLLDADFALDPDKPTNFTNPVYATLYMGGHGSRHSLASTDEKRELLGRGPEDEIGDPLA
# Tests used:
# [1] = target: T1, DKK1-AP; assay: SPR; Biacore T200; purified mLRPIV-6×His (15 μM) amine-coupled to a CM5 chip; DKK1 or DKK3 at 6.25 to 200 nM; conditions: both partners purified
# [2] = target: T2, DKK3-AP (UniProt Q9UBP4 22-350); assay: as above; conditions: both partners purified
# T2 construct: DKK3 cDNA cloned into the pAPtag-5 vector (GenHunter, QV5); also called DKK3 tagged with alkaline phosphatase (AP) and 6 × His; source: HEK293, transfected, conditioned medium; purified with Ni-NTA Agarose beads; not shown: alkaline phosphatase (AP), C-terminal, kept
# T2 sequence (Q9UBP4 22-350): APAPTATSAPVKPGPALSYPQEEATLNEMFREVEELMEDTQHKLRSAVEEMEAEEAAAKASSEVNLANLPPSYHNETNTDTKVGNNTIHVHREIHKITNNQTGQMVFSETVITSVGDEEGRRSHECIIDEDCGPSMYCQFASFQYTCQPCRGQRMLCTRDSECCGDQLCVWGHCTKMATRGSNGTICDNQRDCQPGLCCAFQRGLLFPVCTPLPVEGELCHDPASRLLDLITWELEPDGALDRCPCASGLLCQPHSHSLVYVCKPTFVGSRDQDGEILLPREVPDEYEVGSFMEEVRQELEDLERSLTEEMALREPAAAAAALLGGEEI
binder,measurement,setting,value
B1,Kd,[1],82.3 nM
same,Kd,[2],35.5 nM
